# From US20210198377A1 (XDCEXPLORER SHANGHAI, published 2021)
# T1: biotinylated recombinant TPBG protein (Homo sapiens (Human), UniProt Q13641 32-355, Biotinylated; the number and positions of the biotin labels are not stated and the letters do not carry them.)
# T1 sequence: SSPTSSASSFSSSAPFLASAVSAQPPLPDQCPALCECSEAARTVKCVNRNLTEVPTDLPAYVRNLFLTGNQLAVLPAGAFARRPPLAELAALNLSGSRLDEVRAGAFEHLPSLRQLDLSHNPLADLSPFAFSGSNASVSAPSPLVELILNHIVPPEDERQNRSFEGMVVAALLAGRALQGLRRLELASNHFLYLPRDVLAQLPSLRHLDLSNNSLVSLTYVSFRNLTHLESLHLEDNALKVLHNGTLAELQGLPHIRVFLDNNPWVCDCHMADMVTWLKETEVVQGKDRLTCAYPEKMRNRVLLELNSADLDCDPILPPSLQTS
# T2: human TPBG-hFc (human, UniProt Q13641 32-355)
# T2 construct: also called immunogen A; hFc tagged TPBG protein; not shown: The human IgG Fc fragment of the pCpC vector (Invitrogen V044-50) and any linker to it
# T2 sequence: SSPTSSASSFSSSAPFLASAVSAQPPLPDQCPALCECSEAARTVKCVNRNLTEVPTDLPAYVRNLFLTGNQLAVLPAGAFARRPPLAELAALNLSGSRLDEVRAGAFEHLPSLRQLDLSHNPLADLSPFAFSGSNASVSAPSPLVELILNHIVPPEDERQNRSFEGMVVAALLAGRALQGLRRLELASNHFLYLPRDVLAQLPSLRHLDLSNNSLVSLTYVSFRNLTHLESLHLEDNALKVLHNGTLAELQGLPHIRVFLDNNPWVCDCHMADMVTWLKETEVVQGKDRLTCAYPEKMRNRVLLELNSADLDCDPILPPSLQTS
# Tests used:
# [1] = target: T1, biotinylated recombinant TPBG protein; assay: competitive ELISA; row antibody 5 ug/mL; competitor: coated 103E2E9C2
# Method: The purified antibodies to be tested were diluted to 1 μg/mL using PBS, and coated with high-adsorption of 96-well microplates at […]. After overnight coating at 4[…], 250 μL of blocking buffer (PBS containing 0.01% (v/v) Tween20 and 1% (w/w) BSA) was added to block coating at room temperature for 1 h, and 0.05 μg/mL of biotinylated recombinant TPBG protein was added to each well. Meanwhile, 5 μg/mL final concentration of competitive antibodies, i.e. the purified antibodies obtained from Embodiment 2 with the clone number of 12B12C7C3, 5G4H10G5, 37H9C5G2, 39A11G5F2, 52C9E9F6, 28D4E6A9, 36A10D8B12, 99E12C7H1, 103E2E9C2 and 106D5G3D10 were added and incubated at 25-37° C. for 1-2 h. The plates were washed three times with plate-washing buffer (PBS containing 0.01% (v/v) Tween20) and HRP (horseradish peroxidase)-labeled streptavidin (purchased from Sigma) was added. After incubating at 37° C. for 0.5 h, the plates were washed three times with plate-washing buffer (PBS containing 0.01% (v/v) Tween20), and 100 μL of TMB substrate was added to each well and the plates were further incubated at room temperature for 30 min prior to adding 100 μL of stop buffer (1.0N HCl) to each well. A₄₅₀ₙₘ values were read using an ELISA microplate reader (SpectraMax 384plus purchased from Molecular Device) and results were shown in FIG. 6. The higher the values of the competition rate, the closer the antigen surface of the two antibodies are.
# human TPBG-hFc = target: T2, human TPBG-hFc; assay: ELISA, coated human TPBG-hFc 1.0 ug/mL; antibody 20 nM
# Method: The purified immunogen A (as for its method of preparation please refer to step 1 in Example 1) diluting with PBS to a final concentration of 1.0 μg/mL was aliquoted into a 96-well ELISA plate at 100 μL per well, and sealed with a parafilm and incubated at 4° C. overnight. The plate was washed twice with plate washing buffer (PBS containing 0.01% (v/v) Tween 20), and blocked with blocking buffer (PBS containing 0.01% (v/v) Tween 20 and 1% (w/w) BSA) at room temperature for 2 h. The blocking buffer was discarded, and 100 μL per well of the purified antibody obtained from Embodiment 2 was added. After incubating at 37° C. for 2 h, the plate was washed for three times with plate washing buffer (PBS containing 0.01% (v/v) Tween 20). HRP (horseradish peroxidase)-labeled secondary antibody (purchased from Sigma) was added and incubated at 37° C. for 2 h, and the plate was washed for three times using plate washing buffer (PBS containing 0.01% (v/v) Tween 20). 100 μL of TMB substrate was aliquoted into each well, incubated at room temperature for 30 min, and 100 μL of stop buffer (1.0N HCl) per well was subsequently added. A₄₅₀ₙₘ values were read using the ELISA plate reader (SpectraMax 384plus purchased from Molecular Device), and the results were shown in FIG. 6 and table 6. […] In Table 6 the IgG control herein is a mice IgG control, the data in the Table are OD₄₅₀ₘₙ values, and Blank means the OD₄₅₀ₘₙ value when there is only PBS buffer in the plate.
competition rate [1] [%],OD450nm (human TPBG-hFc) [OD450nm],Binder
0,2.5,"39A11G5F2 (antibody, V domains shown, Mouse hybridoma antibody purified from culture supernatant; also called TPBG antibody; lead antibody) VH: QVQLQQSGAELMKPGASMRLSCKATGYTFTGYWLEWIKRRPGHGLEWIGEILPGRGSTNYNEKFKGKATFTAETSSNTAYMQLTSLTTEDSAIYYCARGGRDFDNWGQGTTLTVSS VL: DIQMTQSTSSLSASLGDRVTISCSASQGINNHLNWYQQKPDGTVKLLIYYTSSLHSGVPSRFSGSGSGTDYSLTISNLEPEDIAIYYCQQFSKLPYTFGGGTKVEMK"
0,2.69,"52C9E9F6 (antibody, V domains shown, Mouse hybridoma antibody purified from culture supernatant; also called TPBG antibody; lead antibody) VH: QVQLQQSGAELMKPGASVKLSCKATGYTFTGYWIEWIKQRPGHGLEWIGEILPGRGSTDYNEKFKGKATFTADTSSNTAYMQLSSLTTEDSAIYYCTRGRLDFTYWGQGTLVTVSA VL: DIQMTQTTSSLSASLGDRVTISCSASQGIRNYLNWYQQKPDGTVKLLIYYTSSLHSGVPSRFSGSGSGTDYSLTISNLEPEDIATYYCQQYSKVPWTFGGGTKLEIK"
0,2.82,"106D5G3D10 (antibody, V domains shown, Mouse hybridoma antibody purified from culture supernatant; also called TPBG antibody; lead antibody) VH: EVQLVESGGGLVKPGGSLKLSCAASGFTFSDYGMHWVRQAPEKGLEWVGYISSGTYVVYYADTVKGRFTISRDNAKNTLFLQMTSLRSEDTAIYYCSTYGSNPFDYWGQGTTLTVSS VL: QLVLTQSPAIMSASPGEKVTITCSATSSVSSMHWFQQKPVTSPKLWIYSTSNLASGVPTRFSGSGSGTSYSLTISRMEAEDAATYYCQQRSGYPPIFTFGSGTKLEIK"
88,2.59,"28D4E6A9 (antibody, V domains shown, Mouse hybridoma antibody purified from culture supernatant; also called TPBG antibody; lead antibody) VH: DVQLVESGGGLVRPGGSLKLSCAASGFTFSNYVMSWARQSPEKRLEWVAEISTGGSHTYYSDTVTGRFTISRDNAKKALYLEMSSLRSEDTAIYYCIMFYYGSSYSMDYWGQGTSVTVSS VL: DIQMTQSTSSLSASLGDRITISCRASQDIRNYLNWYQQKPDGTVKLLIYHTSRLHSGVPSRFSGSGSGTDYSLTISNLEQEDIATYFCQQGDTLPLTFGAGTRLELK"
0,2.83,"12B12C7C3 (antibody, V domains shown, Mouse hybridoma antibody purified from culture supernatant; also called TPBG antibody; lead antibody) VH: DVQLVESGGGLVQPGGSRKLSCAASGFTFSNFGMHWVRQAPEKGLEWVAYISSGSTSFYYADTVKGRFTISRDNPKNTLFLQMTSLRSEDTAMYYCSRTNSLLRGFFDAWGAGTTVTVSS VL: DIVLTQSPASLAVSLGQRATISCRASQSVSSSSYTYLHWYQQKPGQPPKLLIKSASNLESGVPARFSGTGSGTDFTLNIHPVEEEDTATYYCQHSWEIPLTFGAGTKLELK"
88,2.62,"103E2E9C2 (antibody, V domains shown, Mouse hybridoma antibody purified from culture supernatant; also called TPBG antibody; lead antibody) VH: EVQLQQSGPVLVKPGASVKMSCEASGYSFIDYYMSWVKQSRGRSLEWIGVFNPYSGEIIYNQKFKGKATLTVDKSSSTAYMELSSLTSEDSGVYSCARLRISYYAIDYWGQGTSVAVSS VL: ENVLTQSPAIMSASPGEKVTMTCRATSSVSSGHFHWYQQKSGASPKVWIYSTSNLASGVPARFSGSGSGTSFSLTISSVEAEDVATYFCQQYSGYPLTFGGGTKLEIK"
40,3.07,"36A10D8B12 (antibody, V domains shown, Mouse hybridoma antibody purified from culture supernatant; also called TPBG antibody; lead antibody) VH: DVQLQESGPGMVKPSQSLSLTCTVTGYSITSGYDWHWIRHFPGNKLEWMGYISYSGNTNYNPSLKSRISITHNTSKNHFFLRLNSVTTEDTATYYCARGYGNWDAMDYWGQGTSVTVSS VL: DIVMTQSQKFMSTSVGDRVSVTCKASQIVDTNVAWYQQKPGQSPKALISSASYRYSGVPDRFTGSGSGTDFTLTISNVQSEDLAEYFCQQYNSYPLTFGAGTKLELT"
2,2.8,"5G4H10G5 (antibody, V domains shown, Mouse hybridoma antibody purified from culture supernatant; also called TPBG antibody; lead antibody) VH: EVQLVESGGDLVQPGGSLKLFCAASGFTFSTYGLSWVRQTPDKRLELVATITNNDGSAYYPDSVKGRFTISRDKAKNTLFLQMTSLKSEDTAMYYCARETGFGSSYLFDYWGQGTLVTVSA VL: NIVMTQTPKFLLVSAGDRVTITCKASQSVSNDVAWYQQKPGQSPKLLIYFATNRYTGVPNRFTGSGYGTEFTFTISSVQAEDLAVYFCQQDYSSPTFGGGTKLEIK"
38,2.63,"37H9C5G2 (antibody, V domains shown, Mouse hybridoma antibody purified from culture supernatant; also called TPBG antibody; lead antibody) VH: QVQLQQSDAELVRPGASVKMSCKVSGYTFTDHTIHWMKQRPEQGLEWIGYIYPRDGSGTYNEKFKGKATLTADKSSSTAYMQLNSLTSEDSAVYFCARDGSSHYWYFDVWGTGTTVTVSS VL: DIQMTQSPASLSASVGETVTITCRASEIIYNYLAWYQQKQGKSPQLLVYNAKTLAEGVPSRFSGSYSGTQFSLNINSLQSEDFGIYYCQHHHDTPLTFGAGTKLDLK"
1,2.88,"99E12C7H1 (antibody, V domains shown, Mouse hybridoma antibody purified from culture supernatant; also called TPBG antibody; lead antibody) VH: QIQLVQSGPELKKPGETVKISCKPSGYTFTAYGLSWVKQAPGQGFQWMGWINTYSGVPTYTDDFKGRFAFSLETSAGTASLQITNLKNEDTATYFCARSSIPPFEYWGPGTTLTVSS VL: SFVMTQSPKFLLVSVGDRVTITCKASQSVSNDVAWYQQKPGQPPRVLIYFASNRYTGVPDRFTGSGYGTDFTFTISTVQAEDLALYFCQQDYSSPWTFGGGTKLEIK"
